Literature values as cited in publication PMC7509490.

Target: G-actin (Oryctolagus cuniculus) (UniProt P68135)

In the case of Profilin (from UniProt P07274), the Kd is given as 0.2 µM.
